# Numbered stars: 1 amine (or outer) side, 2 acyl side, 3 side chain; on linkers, the order of the positions; unused ones are H or OH. Bridge positions count the residues as written; N and C are the ends. Square brackets hold non-standard residues; d marks the D form. Ends that are not written are not given here. Trimesoyl = O=C(c1cc(C(=O)[*:2])cc(C(=O)[*:3])c1)[*:1]; 2Nal = N[C@@H](Cc1ccc2ccccc2c1)C(=O)O; Dap = NC[C@H](N)C(=O)O; βAla = NCCC(=O)O
# B1: peptide 7 (peptide)
# peptide: GWIYA[Dap]F[2Nal]R[dR]R[Dap][βAla][βAla]K
# modifications: linker N-6-12 via Trimesoyl; not fully specified (N-terminus); printed as Tm(GWIYA)Δ(FΦRrRΔ)-BBK
# B2: peptide 20 (peptide)
# peptide: GAIAA[Dap]F[2Nal]R[dR]R[Dap][βAla][βAla]K
# modifications: linker (positions not given here) via trimesic acid; not fully specified (bridges); printed as Tm(GAIAA)Δ(FΦRrRΔ)-BBK
# B3: peptide 21 (peptide)
# peptide: GAAAA[Dap]F[2Nal]R[dR]R[Dap][βAla][βAla]K
# modifications: linker (positions not given here) via trimesic acid; not fully specified (bridges); printed as Tm(GAAAA)Δ(FΦRrRΔ)-BBK
# B4: fluorescently labeled peptide 7 (peptide)
# peptide: GWIYA[Dap]F[2Nal]R[dR]R[Dap][βAla][βAla]K
# modifications: linker (positions not given here) via trimesic acid; not fully specified (bridges); printed as Tm(GWIYA)Δ(FΦRrRΔ)-BBK; also: FITC label, site not given here
# B5: peptide 12 (peptide)
# peptide: GAIYA[Dap]F[2Nal]R[dR]R[Dap][βAla][βAla]K
# modifications: linker (positions not given here) via trimesic acid; not fully specified (bridges); printed as Tm(GAIYA)Δ(FΦRrRΔ)-BBK
# B6: peptide 13 (peptide)
# peptide: GWAYA[Dap]F[2Nal]R[dR]R[Dap][βAla][βAla]K
# modifications: linker (positions not given here) via trimesic acid; not fully specified (bridges); printed as Tm(GWAYA)Δ(FΦRrRΔ)-BBK
# B7: peptide 2 (peptide)
# peptide: GWIY[Dap]F[2Nal]RRR[Dap][βAla][βAla]K
# modifications: linker (positions not given here) via trimesic acid; not fully specified (bridges); printed as Tm(GWIY)Δ(FΦRRRΔ)-BBK
# B8: peptide 15 (peptide)
# peptide: GWIYA[Dap]A[2Nal]R[dR]R[Dap][βAla][βAla]K
# modifications: linker (positions not given here) via trimesic acid; not fully specified (bridges); printed as Tm(GWIYA)Δ(AΦRrRΔ)-BBK
# B9: peptide 6 (peptide)
# peptide: GWIY[Dap]F[2Nal]R[dR]R[Dap][βAla][βAla]K
# modifications: linker (positions not given here) via trimesic acid; not fully specified (bridges); printed as Tm(GWIY)Δ(FΦRrRΔ)-BBK
# B10: peptide 19 (peptide)
# peptide: GWIYA[Dap]F[2Nal]R[dR]A[Dap][βAla][βAla]K
# modifications: linker (positions not given here) via trimesic acid; not fully specified (bridges); printed as Tm(GWIYA)Δ(FΦRrAΔ)-BBK
# B11: peptide 3 (peptide)
# peptide: GWIY[Dap]F[2Nal]RRRR[Dap][βAla][βAla]K
# modifications: linker (positions not given here) via trimesic acid; not fully specified (bridges); printed as Tm(GWIY)Δ(FΦRRRRΔ)-BBK
# B12: peptide 10 (peptide)
# peptide: [dA]GWIY[Dap]F[2Nal]R[dR]R[Dap][βAla][βAla]K
# modifications: linker (positions not given here) via trimesic acid; not fully specified (bridges); printed as Tm(aGWIY)Δ(FΦRrRΔ)-BBK
# B13: peptide 18 (peptide)
# peptide: GWIYA[Dap]F[2Nal]R[dA]R[Dap][βAla][βAla]K
# modifications: linker (positions not given here) via trimesic acid; not fully specified (bridges); printed as Tm(GWIYA)Δ(FΦRaRΔ)-BBK
# B14: peptide 9 (peptide)
# peptide: AGWIY[Dap]F[2Nal]R[dR]R[Dap][βAla][βAla]K
# modifications: linker (positions not given here) via trimesic acid; not fully specified (bridges); printed as Tm(AGWIY)Δ(FΦRrRΔ)-BBK
# B15: peptide 17 (peptide)
# peptide: GWIYA[Dap]F[2Nal]A[dR]R[Dap][βAla][βAla]K
# modifications: linker (positions not given here) via trimesic acid; not fully specified (bridges); printed as Tm(GWIYA)Δ(FΦArRΔ)-BBK
# B16: peptide 14 (peptide)
# peptide: GWIAA[Dap]F[2Nal]R[dR]R[Dap][βAla][βAla]K
# modifications: linker (positions not given here) via trimesic acid; not fully specified (bridges); printed as Tm(GWIAA)Δ(FΦRrRΔ)-BBK
# B17: peptide 16 (peptide)
# peptide: GWIYA[Dap]FAR[dR]R[Dap][βAla][βAla]K
# modifications: linker N-6-12 via Trimesoyl; not fully specified (N-terminus); printed as Tm(GWIYA)Δ(FARrRΔ)-BBK
# notes: Alanine-scan variant of peptide 7
# B18: peptide 11 (peptide)
# peptide: AWIYA[Dap]F[2Nal]R[dR]R[Dap][βAla][βAla]K
# modifications: linker (positions not given here) via trimesic acid; not fully specified (bridges); printed as Tm(AWIYA)Δ(FΦRrRΔ)-BBK
# B19: peptide 4 (peptide)
# peptide: GWIY[Dap]F[2Nal]RRR[Dap]R[βAla]K
# modifications: linker N-5-11 via Trimesoyl; not fully specified (N-terminus); printed as Tm(GWIY)Δ(FΦRRRA)-RBK
# notes: Bicyclic peptide; 4th arginine outside the B ring
# B20: peptide 5 (peptide)
# peptide: GWIY[Dap]F[2Nal]RRR[Dap][dR][βAla]K
# modifications: linker N-5-11 via Trimesoyl; not fully specified (N-terminus); printed as Tm(GWIY)Δ(FΦRRRA)-rBK
# notes: Bicyclic peptide; D-arginine outside the B ring
# Target: NEMO (endogenous, inside cultured cells) (UniProt Q9Y6K9 1-419)
# Test: cell-based or functional assay
# Chain of NEMO (endogenous, inside cultured cells) (Q9Y6K9 whole entry): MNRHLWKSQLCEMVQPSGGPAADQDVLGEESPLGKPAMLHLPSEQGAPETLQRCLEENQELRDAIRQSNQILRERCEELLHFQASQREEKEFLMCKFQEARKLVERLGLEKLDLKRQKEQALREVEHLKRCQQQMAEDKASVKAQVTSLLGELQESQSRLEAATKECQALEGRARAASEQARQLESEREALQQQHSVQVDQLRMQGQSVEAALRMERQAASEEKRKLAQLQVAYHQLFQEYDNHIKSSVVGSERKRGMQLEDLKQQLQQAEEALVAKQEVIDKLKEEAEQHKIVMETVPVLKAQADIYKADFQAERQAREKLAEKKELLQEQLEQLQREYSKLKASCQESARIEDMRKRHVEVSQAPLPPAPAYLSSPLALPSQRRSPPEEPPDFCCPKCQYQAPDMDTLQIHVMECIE
row,"inhibition of TNFα-induced NF-κB activation, luciferase in HEK293(Luc) cells, IC50 [µM]",Binder
1,10,B1

# Target: T1, Recombinant GST-NEMO (NEMO(1-196)) (UniProt Q9Y6K9 1-196, biotinylated in the library screen)
# T1 construct: range 1-196; Expressed in E. coli BL21(DE3); also called NF-κB essential modulator; IKKγ; not shown: glutathione S-transferase (GST) tag encoded by the pGEX4T3 vector
# Test: HTRF competition IC50 against peptide 7
# T1 sequence (Q9Y6K9 1-196): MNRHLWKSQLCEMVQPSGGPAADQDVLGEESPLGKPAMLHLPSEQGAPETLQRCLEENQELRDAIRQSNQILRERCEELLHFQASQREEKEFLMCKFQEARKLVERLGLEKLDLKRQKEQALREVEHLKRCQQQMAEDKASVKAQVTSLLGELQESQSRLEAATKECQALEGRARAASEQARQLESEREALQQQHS
row,fold lower NEMO-binding affinity against peptide 7 [fold],Binder
1,16,B2
2,> 100,B3

# Target: T1, Recombinant GST-NEMO (NEMO(1-196))
# Test: fluorescence anisotropy (FA), direct binding
row,Kd [µM],Binder
1,0.22,B4

# Target: T1, Recombinant GST-NEMO (NEMO(1-196))
# Test: HTRF competition IC50, peptide 7 against peptide 6
row,fold increase in binding affinity against peptide 6 [fold],Binder
1,5.9,B1

# Target: T1, Recombinant GST-NEMO (NEMO(1-196))
# Test: HTRF competition IC50, alanine scan against peptide 7
row,fold decrease in potency against peptide 7 [fold],Binder
1,2 to 3,B5
2,2 to 3,B6

# Target: T1, Recombinant GST-NEMO (NEMO(1-196))
# Test: HTRF competition, GST-NEMO + biotin-IKKβKK/RR(701-745)
row,IC50 [µM],Binder
1,3.4 to 28,B7

# Target: T1, Recombinant GST-NEMO (NEMO(1-196))
# Test: HTRF competition, GST-NEMO + biotin-IKKβKK/RR(701-745), peptide 0-100 µM
row,IC50 [µM],Binder
1,1.9,B8
2,5.9,B9
3,16,B2
4,1.2,B10
5,1.5,B11
6,3,B5
7,2.3,B12
8,2.9,GWIY[dA][Dap]F[2Nal]R[dR]R[Dap][βAla][βAla]K (linker N-6-12 via Trimesoyl) [peptide 8]
9,2.1,B13
10,3.4,B7
11,2.2,B14
12,1.1,B15
13,2.8,B16
14,2.8,B17
15,1.2,B18
16,1.8,B19
17,1.7,B6
18,1.3,B20
19,1,B1

# From US12281181
